Assay results from the supplement of paper PMC12042874.
± gives the uncertainty stated by the source.

Experiment: amyloid nucleation score (Sup35N fusion, yeast selection) (log enrichment); library NNK2; higher = more nucleation; inactive = no reads after selection
Outline: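 On medium lacking adenine and uracil, psi-negative yeast expressing peptides of 20 random codons fused to Sup35N were grown 7 days at 30°C after a 24-hour induction with 100 μM copper sulfate. Illumina sequencing of input and output plasmid inserts gave the reads, and sequences under 100 input reads were excluded. The nucleation score is the DiMSum log enrichment of output over input reads, centred on the mode score of non-aggregating sequences.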

Point of comparison: RYGGRMAMRINYISIMSADY, amyloid nucleation score 0.138 ± 0.47. Against it:
- SFSESIPIIGGLRKAVSHTS — within error, 0.413 ± 0.24
- AGANLLSLCSFKHAECYFSN — higher, 6.31 ± 0.071
- PCVSMSVYILQLGPLGAWSR — higher, 7.454 ± 0.054
- DDYVWCSYRLMFKSSHEALL — within error, -1.24 ± 1.1
- AVYSGHSYVKMSWVSGGRYW — within error, 0.747 ± 0.43
- SSQSHGGRFQIEYFW — within error, -0.059 ± 0.33
- LTISRSNLGARPF — within error, -0.053 ± 0.39
- QIFKDSWSNIFRVYSCAVGM — higher, 4.33 ± 0.062
- HFTSRLKIRSTIVAVVNVSS — higher, 3.16 ± 0.078
- RSTDLVSIFRMDLAIRINVL — higher, 0.815 ± 0.13
- RFTNSESRNYRA — higher, 4.24 ± 0.069
- FQGCIPFLFVNSWFSYSFVK — within error, -1.36 ± 1.1
- IVDTRGVPIWREISSIRVDL — within error, -0.669 ± 0.74
- TSPRCYRFMIQSMYGLRTRV — higher, 0.883 ± 0.17
- FYMNPRRYRGLVIMFFSSPV — within error, -1.27 ± 1.1
- MRSNWYGNVCVVTSNCDGLG — within error, 0.837 ± 0.48
- SPVLIAYQGMAKDWGLVING — within error, 0.139 ± 0.56
- CKLWECTLLVGWGNLLRVRG — within error, -0.276 ± 0.76
- HKDSKTGSIYHQWMDQREIE — lower, -1.1 ± 0.48
- LPYRSCLWFFFDIRNDVRVG — higher, 2.25 ± 0.12
- RVVVTEKKLPCLGQGTIVPT — within error, 0.03 ± 0.35
- FLFMAIYSILLASIYVAFLS — higher, 2.02 ± 0.2
- EYSLCRMG — within error, -0.155 ± 0.28
- ANERCGTLTMRSEAYHVRTW — within error, 0.808 ± 0.28
- ACVNYYNSEATIVVRKGRMG — higher, 4.19 ± 0.071
- QKDLVSRGQYEVIVDSGTLG — higher, 4.446 ± 0.035
- HRCSKPSWKVCIEWCRSRCV — within error, 0.614 ± 0.45
- WNVSGC — within error, -0.474 ± 0.55
- DTIGAATLTITVWNSFMVGP — higher, 4.15 ± 0.076
- YRFMTLVQHSYRCICLRLNA — within error, -0.183 ± 0.33
- LVRPSGANPSCWAIINRGEI — higher, 10.63 ± 0.079
- FLACRSLGKPRMFDRSLRYV — within error, 0.185 ± 0.44
- LALSTCFYSWIVLAMFFHRK — higher, 3.16 ± 0.11
- NSVDSRWGDQLARICIHGMT — within error, 0.141 ± 0.42
- LDWGCILVQ — within error, 0.012 ± 0.43
- LLNALCMWMPM — higher, 6.876 ± 0.051
- VWWGSMHAVC — within error, 0.652 ± 0.31
- MYLVRIR — within error, 0.316 ± 0.42
- SLTCIDWSELQYSNKSFGSM — within error, -0.766 ± 0.79
- CTNMREFKGSLKAHIVLVVV — within error, -0.479 ± 0.32
- DYIDKPELLSVLGTRQMKCF — within error, 0.241 ± 0.35
- FCMRNGVYLEYFVGLMLFCA — within error, -0.566 ± 0.63
- RMSWVGSEHRLGVNSFNVLG — within error, 0.201 ± 0.34
- ANDPCGVKASRLYVLVSPRV — within error, 0.707 ± 0.19
- MLLLVNSRLWLASIPIKYRA — within error, -0.332 ± 0.44
- KIYERPAITDFGSQVD — within error, -0.505 ± 0.21
- ILAGSAFCLLCCVKAGWSDE — higher, 6.41 ± 0.086
- SVLERPCMS — within error, 0.176 ± 0.76
- LDLLKNCCTASMPGSLVVGR — within error, 0.369 ± 0.65
- RLSCFMNRGVREDSDSN — within error, -0.766 ± 0.61
- VMALSIMTMGTSVGFRDNGG — higher, 4.38 ± 0.071
- VHHLDNYLQAN — within error, -0.659 ± 0.34
- QHVFKVVSVALIMRCYDCGI — higher, 1.64 ± 0.11
- EVHASYVRTSWDVCTWVGHV — higher, 2.29 ± 0.26
- KYDVEGMQVSRNFY — within error, -0.424 ± 0.79
- LNCFYEPTSGSKLYTLRPAF — within error, -0.107 ± 1
- NRSAYLGRMVSI — within error, 0.164 ± 0.44
- TTLYGGAFIGIGYVGRHTEN — higher, 3.21 ± 0.15
- CKMYVET — within error, 0.23 ± 0.38
- QLFRCGRWGLLFSAAFFYLV — within error, 0.264 ± 0.8
- SYVCRIERADVACWVKEEGA — within error, 0.857 ± 0.28
- FRLRVRTVRQNCLYHWGSVE — within error, 0.024 ± 0.56
- YSFSRTYVLIIDGVS — higher, 1.27 ± 0.18
- DNEMRYGDRSSVFI — higher, 1.32 ± 0.24
- YLSLNGVHYCIGSITIPSQR — higher, 8.06 ± 0.083
- VYYWHEYFIDWY — within error, -1.27 ± 1.1
- GSKRCSFRGLCIIYSVSMCS — higher, 6.996 ± 0.044
- NSLNSMVYYEYFYFLVYVCG — within error, -0.015 ± 0.49
- DPRLSSLSCMGRWHHNYHAS — within error, 0.772 ± 0.5
- ECVRCC — lower, -1.11 ± 0.76
- DFMIKSISVLFTVSISSNRV — lower, -1.69 ± 0.73
- ISTSPMLACVASVRRSLIRT — within error, 0.098 ± 0.74
- VEFIVSWHGPAKRYPYATTL — within error, 0.629 ± 0.34
- IIVCVSGIYLSMSQ — higher, 6.007 ± 0.035
- KSIGTAGFDN — lower, -0.846 ± 0.42
- ITSLRSLRYFHVEFVSRLWL — within error, 0.554 ± 0.81
- GNADRF — lower, -1.12 ± 0.63
- PSVVVSNTYIGSPGYKRIWF — higher, 7.844 ± 0.071
- FRNSNLT — within error, -0.462 ± 0.76
- MHWFPPYDWK — within error, 0.266 ± 1
- VLGKFVEPGMAGLSVTPFRM — within error, 0.829 ± 0.57
- EPSCTATKFVSGTMF — higher, 2.17 ± 0.11
- SSRSDAIFIAICLNFIKGKM — higher, 1.32 ± 0.33
- QLKYVSGNIYRLVVWVRGSP — lower, -0.926 ± 0.37
- GMNWGWRFVNIFY — higher, 5.848 ± 0.031
- APENGFRFWLVNHNAVHMIL — within error, -0.21 ± 0.79
- NMDKRSNGFRKCMWLS — within error, -0.883 ± 1.1
- CGDQSVFERYETRRNLGL — within error, 0.21 ± 0.63
- IQACYGFQSNDVPLISCT — lower, -1.78 ± 0.49
- RHGGQAAGRVEHVTSGCQRV — higher, 1.54 ± 0.47
- SLKPSLLSDKNE — lower, -1.39 ± 0.36
- PSLFTVFNVRLFQE — higher, 4.12 ± 0.072
- RMDKAGRSGV — within error, 0.656 ± 0.26
- LSLFSYPLHAPFLTMVSWPY — within error, -0.78 ± 0.78
- WVQLWESASFGNRLVGNMSL — within error, -0.352 ± 1
- LLGWPRLYLWTE — within error, 0.402 ± 0.42
- CWRRDNNRGCARRSGVAPAK — within error, 0.495 ± 0.24
- GLPSILVYL — lower, -1.31 ± 0.78
- VCTLRVSDNNLEKKSVLYMR — higher, 3.97 ± 0.047
- FHVEHGAWWCIGDRFVVPGF — within error, 0.541 ± 0.2
- RGSSLCYLRKGGFGWQGVVG — within error, 0.733 ± 0.56
- SIRRLTR — within error, -0.172 ± 0.49
- NWGSRNFCW — within error, -1.26 ± 1.1
- LWVFLLAWSAQLYDWSMATR — within error, -0.12 ± 0.79
- KTYEMTDQVIRKPYPL — within error, 0.347 ± 0.25
- LNIYF — higher, 3.13 ± 0.11
- YGVFRSESRPTCLKSLDRMK — within error, 0.575 ± 0.34
- LTSWDHN — within error, 0.131 ± 0.31
- GSWDFSGAIMGLSYSKTVYI — within error, -1.18 ± 1.1
- GVCNYPPCPGMMKGKTSLGN — higher, 1.32 ± 0.26
- QYLVRYLYAITLK — within error, -0.603 ± 1
- IRWFTEKISDKHLTGCRGLT — within error, 0.345 ± 0.45
- NKRHSGRFSVLQISA — higher, 0.957 ± 0.15
- DFFRRFI — within error, -0.742 ± 0.48
- KELDLDFRCFQYYNVVVVPQ — higher, 2.33 ± 0.091
- EGTCPSSGNILSWKSFCVVG — within error, -0.519 ± 0.25
- IRLARISWRSRHYSTHSGVS — within error, -0.076 ± 0.31
- IFPLPDLGAYSC — within error, 0.47 ± 0.65
- LIGIYLPWSL — within error, -0.735 ± 0.45
- NMLVVFNAPYYSL — higher, 7.811 ± 0.049
- QFLTLCSKSNVRTCYSHSCN — higher, 2.75 ± 0.19
- MFAGLIVLCLVWVYRRC — higher, 4.89 ± 0.061
- NLSSWTVLILRSDAVVPVFL — higher, 4.07 ± 0.078
- QTNCETCVFNNTFELMLHQS — higher, 4.37 ± 0.087
- ASLALYRITRVGICYIRRLR — within error, -0.839 ± 0.78
- KYFTVTDVSLY — higher, 5.911 ± 0.028
- DVKWA — higher, 1.1 ± 0.21
- YKRIHSSKFRPDYSHMV — within error, -0.403 ± 1
- FVVQCY — within error, 0.998 ± 0.52
- PGSRRL — within error, 0.011 ± 0.41
- LVKVTLRVMISV — within error, 0.099 ± 0.2
- NQRIGKTGFYSRSRARLNKT — higher, 3.37 ± 0.06
- YWELQSHMGRFNSSCHLRWV — lower, -1.7 ± 0.76
- TKFVWDQNLVSSLINCGQSL — within error, -0.841 ± 1.1
- MQNANLIQTFEGYIYPMDIQ — within error, 0.433 ± 0.74
- FWDSIKIHSKSLLSCIDGPW — higher, 2.35 ± 0.066
- EEQKSYSENMPV — within error, -0.21 ± 0.56
- ISIAGCFNTKILWMFEQ — higher, 6.32 ± 0.087
- MLESWFMY — within error, -0.154 ± 0.49
- SYLFVSVDLHFIEVFYR — higher, 1.44 ± 0.12
- AFLLLRSMYW — higher, 6.933 ± 0.026
- VIFCVLLVNNLDWRFWPSSK — higher, 4.928 ± 0.037
- LCEISRASPQGGDRDRAMGK — within error, -0.018 ± 0.55
- SLFWNISPLKWSLLIGRCSV — within error, -1.01 ± 0.78
- VMRVT — higher, 5.22 ± 0.081
- GCKLPYE — lower, -1.39 ± 0.75
- KFGVGSLLTSLGYATRSCYL — lower, -0.771 ± 0.25
- GSSNGRALLYCITLKIMGIV — within error, 0.769 ± 0.4
- LEAYVGLLCLSGRLTFSGKC — higher, 2.6 ± 0.1
- FYSTVGSSFWTARQGISLQI — higher, 1.05 ± 0.25
- VPQLSLQLVQRIFGFPSVIL — within error, -0.288 ± 0.41
- GGEIESIGFRLGCLSRRSES — within error, -0.383 ± 0.49
- VDIGENLEFCIVLSQ — within error, -0.19 ± 0.55
- NLEPKNCCCCETFFISYIPT — higher, 1.09 ± 0.35
- VYENKIA — within error, 0.313 ± 0.47

In the case of AACYCCISRMVLYFSFHGSC, the amyloid nucleation score is reported as “inactive”.
For FYSAVYMLFIVMWFGY, the amyloid nucleation score was “inactive”.
For SCGMFESPAVYGYSARLSRL, the amyloid nucleation score was “inactive”.
In the case of YCNIPNRPVSKALRNHLS, the amyloid nucleation score is reported as “inactive”.
For HPSFLRIWDYIRSKFNSVHR, the amyloid nucleation score was “inactive”.
For TNDYSFWVLSHTANQPSLME, the amyloid nucleation score was “inactive”.
In the case of EGVKLECVLYVYDHSARRLL, the amyloid nucleation score is reported as “inactive”.
In the case of QLIMS, the amyloid nucleation score is reported as “inactive”.
With YCLELIGSLTHALPVKSLLV the amyloid nucleation score was “inactive”.
In the case of YFYYRFGHDVVF, the amyloid nucleation score is reported as “inactive”.
With VCWLLGSGFWAS the amyloid nucleation score was “inactive”.
In the case of HYRWMSHADIMVFHNLCRYN, the amyloid nucleation score is reported as “inactive”.
With SKCIRLPFFTLLLTNMFHVA the amyloid nucleation score was “inactive”.
For VNNNLLNASLAMVSM, the amyloid nucleation score was “inactive”.
For FLSARHGRGFARGFSPP, the amyloid nucleation score was “inactive”.
